Consider one substance from patent publication US20110206724A1.

Holding throughout (assay): capture ELISA on E. coli lysate
Assay [1] deals with 150C-IM2(74) hybrid WHcAg construct (woodchuck hepatitis virus; influenza A virus).
For assay [2], the target named is HyW-IM2(-)78 hybrid WHcAg particle (woodchuck hepatitis virus; influenza A virus).
The target in assay [3] is HyW-IM2(74) hybrid WHcAg construct (woodchuck hepatitis virus; influenza A virus).
Assay [4] concerns the target WT-R-IM2(74) hybrid WHcAg construct (woodchuck hepatitis virus; influenza A virus).

Regarding mAb 14C2, anti-influenza M2e (antibody), the relative binding score (Accessability) (relative score) came to 3 in assay [1], 3 in assay [2], 3 in assay [3] and 2 in assay [4].
